Measurements from the supplement of paper PMC7125110.
± gives the standard error. Variants at the floor of the assay were thinned out.

B1: glmS ribozyme (parent)
chain: AUAAAAGCGCCAGAACUACAGAAAUGUAGUUGACGAGGAGGAGGUUUAUCGAAUUUUCGGCGGAUGCCUCCAAA

Columns and labels:
Settings in all cases: with glucosamine-6-phosphate
glucosamine-6-phosphate [1] = variants of: B1; assay: self-cleavage kobs at 40 uM GlcN6P; higher = faster cleavage; RNA array
Summary of the method: (§1)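 A hybridised Cy3 probe tracked barcoded ribozyme variants, transcribed in situ by E. coli RNA polymerase on sequenced MiSeq chips, at 37 °C. The variants received 40 μM to 10 mM glucosamine-6-phosphate in HEPES/KCl/Mg(OAc)2 buffer. kobs came from decay fits and kcat and KM from weighted Michaelis–Menten fits.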

glucosamine-6-phosphate [2] = variants of: B1; assay: self-cleavage kobs at 2500 uM GlcN6P; higher = faster cleavage; RNA array
Summary of the method: as §1

glucosamine-6-phosphate [3] = variants of: B1; assay: self-cleavage kobs at 160 uM GlcN6P; higher = faster cleavage; RNA array
Summary of the method: as §1

glucosamine-6-phosphate [4] = variants of: B1; assay: self-cleavage kobs at 640 uM GlcN6P; higher = faster cleavage; RNA array
Summary of the method: as §1

glucosamine-6-phosphate [5] = variants of: B1; assay: self-cleavage kobs at 10000 uM GlcN6P; higher = faster cleavage; RNA array
Summary of the method: as §1

Variant	self-cleavage kobs at 40 uM GlcN6P (glucosamine-6-phosphate [1])	self-cleavage kobs at 2500 uM GlcN6P (glucosamine-6-phosphate [2])	self-cleavage kobs at 160 uM GlcN6P (glucosamine-6-phosphate [3])	self-cleavage kobs at 640 uM GlcN6P (glucosamine-6-phosphate [4])	self-cleavage kobs at 10000 uM GlcN6P (glucosamine-6-phosphate [5])
G9C U65A	< 1e-05 s⁻¹	< 1e-05 s⁻¹	–	–	–
C10A G60A	< 1e-05 s⁻¹	< 1e-05 s⁻¹	< 1e-05 s⁻¹	< 1e-05 s⁻¹	–
G9C U45C U47A C67G	< 1e-05 s⁻¹	–	–	–	–
G9A A14C G37C G38U U49C U69A	< 1e-05 s⁻¹	–	–	–	–
C10A U30G	< 1e-05 s⁻¹	–	< 1e-05 s⁻¹	–	–
C10G A14G C16A G41C	< 1e-05 s⁻¹	–	–	–	< 1e-05 s⁻¹
G9C A12C A14U U49G	< 1e-05 s⁻¹	< 1e-05 s⁻¹	–	–	–
G9U A12U C70U	< 1e-05 s⁻¹	–	–	–	–
C10G A33U C67G	< 1e-05 s⁻¹	–	–	–	–
C8U C16U A52G	< 1e-05 s⁻¹	–	–	–	–
C10G U30A A42U G51A	< 1e-05 s⁻¹	–	–	–	–
G9A G62U	< 1e-05 s⁻¹	< 1e-05 s⁻¹	< 1e-05 s⁻¹	–	–
C10A G41C A48C C58G	< 1e-05 s⁻¹	–	–	–	–
C10G G29A U54G	< 1e-05 s⁻¹	–	–	–	–
C8U A12G C50U C68G	3.9e-05 ± 1.6e-05 s⁻¹	0.000476 ± 0.00018 s⁻¹	0.000221 ± 8.4e-05 s⁻¹	0.00022 ± 8.6e-05 s⁻¹	6.84e-05 ± 1.7e-05 s⁻¹
C8U C68A	< 1e-05 s⁻¹	< 1e-05 s⁻¹	–	< 1e-05 s⁻¹	–
C8U A42C	< 1e-05 s⁻¹	< 1e-05 s⁻¹	< 1e-05 s⁻¹	< 1e-05 s⁻¹	< 1e-05 s⁻¹
C8U A42G	< 1e-05 s⁻¹	–	< 1e-05 s⁻¹	–	< 1e-05 s⁻¹
G9C G62U	< 1e-05 s⁻¹	–	< 1e-05 s⁻¹	< 1e-05 s⁻¹	< 1e-05 s⁻¹
C10A C11U A33C U49G C67G	< 1e-05 s⁻¹	< 1e-05 s⁻¹	–	–	–
C10A G38U	< 1e-05 s⁻¹	–	< 1e-05 s⁻¹	< 1e-05 s⁻¹	–
C8G G43A G59A G60U	< 1e-05 s⁻¹	–	–	–	–
C8U C16U C50G G60A G66U	0.000197 ± 6.5e-05 s⁻¹	–	9.7e-05 ± 4.4e-05 s⁻¹	–	0.000101 ± 2.7e-05 s⁻¹
C10A U47C U54C G66U	< 1e-05 s⁻¹	–	–	–	< 1e-05 s⁻¹
G9U U30C A36C	< 1e-05 s⁻¹	< 1e-05 s⁻¹	–	< 1e-05 s⁻¹	–
C10A G41C	< 1e-05 s⁻¹	< 1e-05 s⁻¹	< 1e-05 s⁻¹	< 1e-05 s⁻¹	< 1e-05 s⁻¹

Variant	self-cleavage kobs at 40 uM GlcN6P (glucosamine-6-phosphate [1])	self-cleavage kobs at 2500 uM GlcN6P (glucosamine-6-phosphate [2])	self-cleavage kobs at 160 uM GlcN6P (glucosamine-6-phosphate [3])	self-cleavage kobs at 640 uM GlcN6P (glucosamine-6-phosphate [4])	self-cleavage kobs at 10000 uM GlcN6P (glucosamine-6-phosphate [5])
G9U C16U G43U A53U	< 1e-05 s⁻¹	–	–	–	< 1e-05 s⁻¹
G9C C71U	< 1e-05 s⁻¹	< 1e-05 s⁻¹	< 1e-05 s⁻¹	< 1e-05 s⁻¹	< 1e-05 s⁻¹
G9A U55G	< 1e-05 s⁻¹	–	< 1e-05 s⁻¹	–	–
C10A U46G U47G C50G C58G C68U	0.000116 ± 2.2e-05 s⁻¹	–	–	–	0.000242 ± 4.3e-05 s⁻¹
C10G C16U U49C	< 1e-05 s⁻¹	–	–	< 1e-05 s⁻¹	–
C10G G43U U47G C61A	< 1e-05 s⁻¹	< 1e-05 s⁻¹	–	< 1e-05 s⁻¹	–
C10A A36G G40C U47G	< 1e-05 s⁻¹	–	–	–	–
G9C G37U	< 1e-05 s⁻¹	< 1e-05 s⁻¹	< 1e-05 s⁻¹	< 1e-05 s⁻¹	–
G9A G32C A52U	< 1e-05 s⁻¹	–	–	–	< 1e-05 s⁻¹
G9U G43U	< 1e-05 s⁻¹	< 1e-05 s⁻¹	–	< 1e-05 s⁻¹	< 1e-05 s⁻¹
G9A A14C A48C	< 1e-05 s⁻¹	–	–	–	–
G9A A42C C71G	< 1e-05 s⁻¹	–	–	–	–
G9C C16U U47G C61U	< 1e-05 s⁻¹	–	–	–	< 1e-05 s⁻¹
C8U U31G G62U	< 1e-05 s⁻¹	–	–	–	–
C10A C34G	< 1e-05 s⁻¹	< 1e-05 s⁻¹	–	< 1e-05 s⁻¹	< 1e-05 s⁻¹
C10A U46G C68G	0.000169 ± 4.8e-05 s⁻¹	–	–	–	6.66e-05 ± 2.2e-05 s⁻¹
C10G U30C A33C U55A	< 1e-05 s⁻¹	–	–	–	< 1e-05 s⁻¹
C8U C11G C50U U56C U69G	4.97e-05 ± 2.2e-05 s⁻¹	–	–	–	–
C10G C34U	< 1e-05 s⁻¹	< 1e-05 s⁻¹	< 1e-05 s⁻¹	< 1e-05 s⁻¹	< 1e-05 s⁻¹
G9U G51A	< 1e-05 s⁻¹	–	< 1e-05 s⁻¹	< 1e-05 s⁻¹	< 1e-05 s⁻¹
C8U U47C	< 1e-05 s⁻¹	< 1e-05 s⁻¹	< 1e-05 s⁻¹	< 1e-05 s⁻¹	< 1e-05 s⁻¹
C10A G13A U56C	< 1e-05 s⁻¹	–	–	–	–
C10G G29C G40A	< 1e-05 s⁻¹	–	–	–	< 1e-05 s⁻¹
C10G G13U A14U	< 1e-05 s⁻¹	–	–	–	–
C10G A12G G59U C61G	< 1e-05 s⁻¹	–	–	–	–
C8G G37U G41C U56A	< 1e-05 s⁻¹	< 1e-05 s⁻¹	–	–	–

Variant	self-cleavage kobs at 40 uM GlcN6P (glucosamine-6-phosphate [1])	self-cleavage kobs at 2500 uM GlcN6P (glucosamine-6-phosphate [2])	self-cleavage kobs at 160 uM GlcN6P (glucosamine-6-phosphate [3])	self-cleavage kobs at 640 uM GlcN6P (glucosamine-6-phosphate [4])	self-cleavage kobs at 10000 uM GlcN6P (glucosamine-6-phosphate [5])
C10G A14C A36G U55A C71U	< 1e-05 s⁻¹	–	–	–	–
C10A U31C	< 1e-05 s⁻¹	–	–	< 1e-05 s⁻¹	< 1e-05 s⁻¹
G9C C34A A42U G43A	< 1e-05 s⁻¹	–	–	–	–
G9A U55C C71A	< 1e-05 s⁻¹	< 1e-05 s⁻¹	–	< 1e-05 s⁻¹	–
G9C U49A	< 1e-05 s⁻¹	< 1e-05 s⁻¹	–	< 1e-05 s⁻¹	< 1e-05 s⁻¹
C10A G29C U56C A64G	< 1e-05 s⁻¹	–	–	–	–
C10A A36C	< 1e-05 s⁻¹	< 1e-05 s⁻¹	–	< 1e-05 s⁻¹	< 1e-05 s⁻¹
C10A G37C C68U	< 1e-05 s⁻¹	–	–	–	–
G9C G13U G41U G63U	< 1e-05 s⁻¹	–	–	–	< 1e-05 s⁻¹
C10A A15U	< 1e-05 s⁻¹	–	–	< 1e-05 s⁻¹	–
G9U G59U	< 1e-05 s⁻¹	–	< 1e-05 s⁻¹	–	< 1e-05 s⁻¹
C10A G32C	< 1e-05 s⁻¹	< 1e-05 s⁻¹	–	< 1e-05 s⁻¹	–
C10A U46G	< 1e-05 s⁻¹	< 1e-05 s⁻¹	< 1e-05 s⁻¹	< 1e-05 s⁻¹	–
C8U G44A	< 1e-05 s⁻¹	< 1e-05 s⁻¹	< 1e-05 s⁻¹	< 1e-05 s⁻¹	–
C8U G44U	< 1e-05 s⁻¹	< 1e-05 s⁻¹	< 1e-05 s⁻¹	< 1e-05 s⁻¹	< 1e-05 s⁻¹
C10G G43C U46A G60A G62C	< 1e-05 s⁻¹	–	–	–	–
C8U G43A	< 1e-05 s⁻¹	–	< 1e-05 s⁻¹	–	–
G9U G29C A33U A64U	< 1e-05 s⁻¹	< 1e-05 s⁻¹	–	< 1e-05 s⁻¹	< 1e-05 s⁻¹
G9A A14G	< 1e-05 s⁻¹	–	< 1e-05 s⁻¹	–	5.01e-05 ± 1.3e-05 s⁻¹
C10A A12U	< 1e-05 s⁻¹	–	–	–	–
G9A G38C	< 1e-05 s⁻¹	–	< 1e-05 s⁻¹	< 1e-05 s⁻¹	–
G9A G38A	< 1e-05 s⁻¹	–	–	–	< 1e-05 s⁻¹
C10A G40U	< 1e-05 s⁻¹	–	< 1e-05 s⁻¹	< 1e-05 s⁻¹	< 1e-05 s⁻¹
C8U A14G	< 1e-05 s⁻¹	< 1e-05 s⁻¹	< 1e-05 s⁻¹	–	–
G9A A42C	< 1e-05 s⁻¹	< 1e-05 s⁻¹	< 1e-05 s⁻¹	< 1e-05 s⁻¹	–
C8U G38U A39C C58A	< 1e-05 s⁻¹	–	–	–	–

Variant	self-cleavage kobs at 40 uM GlcN6P (glucosamine-6-phosphate [1])	self-cleavage kobs at 2500 uM GlcN6P (glucosamine-6-phosphate [2])	self-cleavage kobs at 160 uM GlcN6P (glucosamine-6-phosphate [3])	self-cleavage kobs at 640 uM GlcN6P (glucosamine-6-phosphate [4])	self-cleavage kobs at 10000 uM GlcN6P (glucosamine-6-phosphate [5])
C8G U31A G41C	< 1e-05 s⁻¹	–	–	–	–
G9A G44A C67A	< 1e-05 s⁻¹	–	–	–	–
G9C A14U G51A C70G	< 1e-05 s⁻¹	–	–	–	–
G9A C16U	< 1e-05 s⁻¹	< 1e-05 s⁻¹	< 1e-05 s⁻¹	< 1e-05 s⁻¹	3.09e-05 ± 1.5e-05 s⁻¹
G9U A33C U69G	< 1e-05 s⁻¹	–	–	–	–
C10A G43A	< 1e-05 s⁻¹	–	–	–	–
C10A G43U	< 1e-05 s⁻¹	–	< 1e-05 s⁻¹	–	< 1e-05 s⁻¹
C10G C11G C68U	< 1e-05 s⁻¹	–	–	–	–
C10G G32U A36C G40U G63U	< 1e-05 s⁻¹	< 1e-05 s⁻¹	–	–	< 1e-05 s⁻¹
G9A G29C	< 1e-05 s⁻¹	–	< 1e-05 s⁻¹	< 1e-05 s⁻¹	< 1e-05 s⁻¹
C8U G32A G41U	< 1e-05 s⁻¹	< 1e-05 s⁻¹	< 1e-05 s⁻¹	< 1e-05 s⁻¹	< 1e-05 s⁻¹
C10G G51A	< 1e-05 s⁻¹	< 1e-05 s⁻¹	–	< 1e-05 s⁻¹	< 1e-05 s⁻¹
C10G C16U	< 1e-05 s⁻¹	–	< 1e-05 s⁻¹	–	–
C8U U30G	< 1e-05 s⁻¹	–	< 1e-05 s⁻¹	< 1e-05 s⁻¹	< 1e-05 s⁻¹
C10A G29A C67G	0.000103 ± 3.7e-05 s⁻¹	–	–	–	0.000102 ± 3e-05 s⁻¹
G9U A33U A52U U56G	< 1e-05 s⁻¹	–	–	–	–
G9U G43C U46G C67A	< 1e-05 s⁻¹	–	–	–	–
C8G G59U	< 1e-05 s⁻¹	< 1e-05 s⁻¹	< 1e-05 s⁻¹	< 1e-05 s⁻¹	–
C8U A14U G29C U46A G51A	< 1e-05 s⁻¹	–	–	–	< 1e-05 s⁻¹
C10A A52C	< 1e-05 s⁻¹	< 1e-05 s⁻¹	–	< 1e-05 s⁻¹	< 1e-05 s⁻¹
G9A C50G U65G G66C C70G	5.55e-05 ± 2.4e-05 s⁻¹	–	–	–	4.91e-05 ± 1.6e-05 s⁻¹
C10G A15G U30G G63U	< 1e-05 s⁻¹	–	–	< 1e-05 s⁻¹	< 1e-05 s⁻¹
G9C G40A C50A	< 1e-05 s⁻¹	–	–	–	< 1e-05 s⁻¹
C10G A39C U45A U54G G62C	< 1e-05 s⁻¹	–	–	–	< 1e-05 s⁻¹
C8U G29U	< 1e-05 s⁻¹	< 1e-05 s⁻¹	< 1e-05 s⁻¹	< 1e-05 s⁻¹	< 1e-05 s⁻¹
